Laboratory results reported in PMC6124691 (Cell, 2018).

Legend:
[1] = molecular target: T1, Human MTR4 (SKIV2L2, DOB1) (human, UniProt P42285 1-1042); assay: cryo-EM structure
T1 sequence: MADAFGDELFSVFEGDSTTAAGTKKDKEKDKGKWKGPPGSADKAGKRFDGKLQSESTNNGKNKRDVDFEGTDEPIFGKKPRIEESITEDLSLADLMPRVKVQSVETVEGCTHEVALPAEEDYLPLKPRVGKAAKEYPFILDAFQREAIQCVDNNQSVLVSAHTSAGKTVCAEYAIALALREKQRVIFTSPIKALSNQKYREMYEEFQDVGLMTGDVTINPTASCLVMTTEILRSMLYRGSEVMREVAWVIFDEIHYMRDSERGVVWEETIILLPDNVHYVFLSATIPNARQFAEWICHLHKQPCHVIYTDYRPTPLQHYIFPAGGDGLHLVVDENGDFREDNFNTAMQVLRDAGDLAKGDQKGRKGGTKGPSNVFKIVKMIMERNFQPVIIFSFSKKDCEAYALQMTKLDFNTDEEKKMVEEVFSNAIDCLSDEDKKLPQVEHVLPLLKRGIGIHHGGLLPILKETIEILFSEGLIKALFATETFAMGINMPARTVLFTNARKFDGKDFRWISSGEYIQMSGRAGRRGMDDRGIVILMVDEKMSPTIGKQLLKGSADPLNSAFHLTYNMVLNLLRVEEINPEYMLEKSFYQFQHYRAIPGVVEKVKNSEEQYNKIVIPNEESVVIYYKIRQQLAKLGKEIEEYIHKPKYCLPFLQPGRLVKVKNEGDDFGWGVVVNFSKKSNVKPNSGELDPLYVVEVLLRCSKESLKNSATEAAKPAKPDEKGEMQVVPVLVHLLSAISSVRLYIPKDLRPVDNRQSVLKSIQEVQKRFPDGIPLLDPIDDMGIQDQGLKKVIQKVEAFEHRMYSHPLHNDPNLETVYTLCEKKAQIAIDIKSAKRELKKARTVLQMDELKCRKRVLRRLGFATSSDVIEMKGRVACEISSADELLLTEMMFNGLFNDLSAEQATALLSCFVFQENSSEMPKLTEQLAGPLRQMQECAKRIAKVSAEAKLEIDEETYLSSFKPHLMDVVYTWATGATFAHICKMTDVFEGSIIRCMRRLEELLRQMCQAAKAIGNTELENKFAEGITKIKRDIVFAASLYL

[2] = molecular target: EXOSC3 (human, UniProt Q9NQT5 1-275); assay: cryo-EM structure
Chain of EXOSC3 (Q9NQT5 whole entry): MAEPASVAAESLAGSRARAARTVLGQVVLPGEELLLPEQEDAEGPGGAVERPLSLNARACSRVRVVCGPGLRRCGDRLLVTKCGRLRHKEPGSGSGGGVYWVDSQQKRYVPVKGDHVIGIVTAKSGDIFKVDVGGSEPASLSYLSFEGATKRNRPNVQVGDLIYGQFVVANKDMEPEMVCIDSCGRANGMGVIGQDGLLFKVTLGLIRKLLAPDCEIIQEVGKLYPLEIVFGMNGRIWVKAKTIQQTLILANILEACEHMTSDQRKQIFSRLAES

B1: Human M-Phase-Phosphoprotein 6 (MPP6) (natural protein)
chain: MAAERKTRLSKNLLRMKFMQRGLDSETKKQLEEEEKKIISEEHWYLDLPELKEKESFIIEEQSFLLCEDLLYGRMSFRGFNPEVEKLMLQMNAKHKAEEVEDETVELDVSDEEMARRYETLVGTIGKKFARKRDHANYEEDENGDITPIKAKKMFLKPQD
B1: binds [1]; binds [2].
